These results are taken from publication doi:10.1101/2021.04.22.440356.

One may read the Kd as the constant that tells how readily two partners part at equilibrium. High values mean a looser complex, low ones a tighter complex.

For this experiment, the target named is human ubiquitin (15N-ubiquitin of the peptide titration) (human) (UniProt P0CG48). In words: NMR titration.

short peptide from the YUH1 N-terminus (1-10), sequence (P35127 whole entry, looked up, tested part not stated): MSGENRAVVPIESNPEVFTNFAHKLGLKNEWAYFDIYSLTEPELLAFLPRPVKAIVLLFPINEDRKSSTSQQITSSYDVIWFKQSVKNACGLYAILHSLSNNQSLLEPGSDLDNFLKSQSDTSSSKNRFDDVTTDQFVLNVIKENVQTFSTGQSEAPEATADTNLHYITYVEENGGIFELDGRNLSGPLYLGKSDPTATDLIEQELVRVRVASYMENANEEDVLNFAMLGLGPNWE

“short peptide from the YUH1 N-terminus (1-10) (from UniProt P35127 1-10)” returned a dissociation constant (Kd) of 180 µM.
